Results taken from article PMC3411048 (The Journal of Biological Chemistry, 2012).
Square brackets hold non-standard residues; d marks the D form. Ends that are not written are not given here. pY = N[C@@H](Cc1ccc(OP(=O)(O)O)cc1)C(=O)O

Tests used:
SHP2 = conditions: ref [11], [36]; cited from earlier work
[1] = test system: N-SH2 domain of the phosphatase; conditions: phosphorylated tyrosine of N-terminal portion; ref [36]; cited from earlier work
[2] = Phosphopeptide array binding analysis; conditions: Two Sample Logo, peptide array, GST-tagged N-SH2 domain 1 μg/ml

Molecule	phosphopeptide positions mediating binding specificity (from pY) [2]	further results
GGGGDIT(pY)ADLNLPKGKKPAPQAAEPNNHTE(pY)ASIQTS [BTAM peptide]	–	activation of SHP2 (SHP2): previously demonstrated to activate SHP2
GGGGDIT[pY]ADLNLPKGKK [N-terminal portion of the BTAM peptide]	–	binding to N-SH2 domain [1]: known to bind specifically the N-SH2 domain of the phosphatase
wild-type domain: isolated wild-type N-SH2 domain (residues 6–103), polyHis- or GST-tagged (protein, left off: polyHis, end not stated, kept) WFHPNITGVEAENLLLTRGVDGSFLARPSKSNPGDFTLSVRRNGAVTHIKIQNTGDYYDLYGGEKFATLAELVQYYMEHHGQLKEKNGDVIELKYPLN	−2, −1, +1, +2, and +3 from the phosphotyrosine	–
N-SH2^Lys76 (protein, left off: GST, end not stated, kept) WFHPNITGVEAENLLLTRGVDGSFLARPSKSNPGDFTLSVRRNGAVTHIKIQNTGDYYDLYGGEKFATLAKLVQYYMEHHGQLKEKNGDVIELKYPLN	Those positions were found to bear the highest information content	–
N-SH2^Cys63 (protein, left off: polyHis, end not stated, kept) WFHPNITGVEAENLLLTRGVDGSFLARPSKSNPGDFTLSVRRNGAVTHIKIQNTGDYCDLYGGEKFATLAELVQYYMEHHGQLKEKNGDVIELKYPLN	Those positions were found to bear the highest information content	–
N-SH2^Asp62 (protein, left off: polyHis, end not stated, kept) WFHPNITGVEAENLLLTRGVDGSFLARPSKSNPGDFTLSVRRNGAVTHIKIQNTGDDYDLYGGEKFATLAELVQYYMEHHGQLKEKNGDVIELKYPLN	Those positions were found to bear the highest information content	–
